Experiments:
ErbB2 [1] = target: ErbB2 (UniProt P04626); test: two-colour single molecule co-localisation and tracking (TOCCSL, TIR microscopy); live CHO-ErbB2-ErbB3 cells; AF488-ErbB3-Fab and AF647-ErbB3-Fab for homodimers, AF488-ErbB2-Fab and AF647-ErbB3-Fab for heterodimers; with 200 ng/mL (25 nM) HRG, no pertuzumab; room temperature; conditions: other: two-colour single molecule co-localisation and tracking (TOCCSL, TIR microscopy)
ErbB2 [2] = target: ErbB2 (UniProt P04626); test: two-colour single molecule co-localisation and tracking (TOCCSL, TIR microscopy); live CHO-ErbB2-ErbB3 cells; AF488-ErbB3-Fab and AF647-ErbB3-Fab for homodimers, AF488-ErbB2-Fab and AF647-ErbB3-Fab for heterodimers; no HRG, no pertuzumab; room temperature; conditions: other: two-colour single molecule co-localisation and tracking (TOCCSL, TIR microscopy)

Chain of ErbB3 (chain): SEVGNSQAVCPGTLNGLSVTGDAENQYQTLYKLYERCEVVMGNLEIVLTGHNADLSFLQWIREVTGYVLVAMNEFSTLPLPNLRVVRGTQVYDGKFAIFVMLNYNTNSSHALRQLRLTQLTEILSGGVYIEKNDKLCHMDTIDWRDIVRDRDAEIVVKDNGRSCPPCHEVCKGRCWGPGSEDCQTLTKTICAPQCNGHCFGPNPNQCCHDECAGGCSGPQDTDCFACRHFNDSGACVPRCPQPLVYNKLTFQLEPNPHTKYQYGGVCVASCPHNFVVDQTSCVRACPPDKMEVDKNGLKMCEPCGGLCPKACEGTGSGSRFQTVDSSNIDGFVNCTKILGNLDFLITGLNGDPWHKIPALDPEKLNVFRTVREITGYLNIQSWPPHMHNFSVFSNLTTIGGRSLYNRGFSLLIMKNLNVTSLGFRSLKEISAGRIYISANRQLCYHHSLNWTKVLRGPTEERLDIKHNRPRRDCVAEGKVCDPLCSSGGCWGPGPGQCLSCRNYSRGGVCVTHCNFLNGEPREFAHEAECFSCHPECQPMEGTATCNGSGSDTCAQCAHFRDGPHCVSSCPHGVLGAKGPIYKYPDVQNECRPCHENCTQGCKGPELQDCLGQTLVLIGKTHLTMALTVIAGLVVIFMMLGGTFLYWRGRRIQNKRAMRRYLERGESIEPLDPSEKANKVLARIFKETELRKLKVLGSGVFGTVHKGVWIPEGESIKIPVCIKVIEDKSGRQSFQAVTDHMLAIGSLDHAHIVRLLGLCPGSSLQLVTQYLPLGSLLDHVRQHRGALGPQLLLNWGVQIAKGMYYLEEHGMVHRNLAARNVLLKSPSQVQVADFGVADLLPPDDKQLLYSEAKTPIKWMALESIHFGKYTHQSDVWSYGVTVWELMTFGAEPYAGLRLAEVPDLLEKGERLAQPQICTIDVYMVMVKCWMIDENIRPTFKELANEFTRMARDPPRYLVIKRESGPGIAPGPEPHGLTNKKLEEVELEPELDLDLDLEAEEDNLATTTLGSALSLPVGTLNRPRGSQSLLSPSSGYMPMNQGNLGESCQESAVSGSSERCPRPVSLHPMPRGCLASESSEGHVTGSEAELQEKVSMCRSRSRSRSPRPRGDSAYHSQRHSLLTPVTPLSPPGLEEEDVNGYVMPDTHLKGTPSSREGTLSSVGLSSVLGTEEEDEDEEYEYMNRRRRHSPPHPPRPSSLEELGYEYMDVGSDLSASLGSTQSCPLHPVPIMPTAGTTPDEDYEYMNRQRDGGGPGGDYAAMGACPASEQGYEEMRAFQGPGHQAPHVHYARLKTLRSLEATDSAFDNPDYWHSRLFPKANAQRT

ErbB3 was tested, and the “percent of ErbB3 in ErbB3/ErbB2 heterodimers” value (ErbB2 [1]) was “a further increase of ErbB3/ErbB2 heterodimerization (∼90%” and the “percent of ErbB3 in ErbB3/ErbB2 heterodimers” value (ErbB2 [2]) was “∼70% of ErbB3 being associated to ErbB3/ErbB2 heterodimers”.

Reference: PMC7018998
